Reference: US20160194407A1 (AstraZeneca / MedImmune, published 2016)
Positions count from the first letter of the chain named.

Experiments:
human CD73 N185G = target: T1, human CD73 N185G (human, UniProt P21589 27-553, N185G); experiment: SPR ProteOn, His-tagged CD73 variant on HTG chip, 2:1 fit
T1 sequence: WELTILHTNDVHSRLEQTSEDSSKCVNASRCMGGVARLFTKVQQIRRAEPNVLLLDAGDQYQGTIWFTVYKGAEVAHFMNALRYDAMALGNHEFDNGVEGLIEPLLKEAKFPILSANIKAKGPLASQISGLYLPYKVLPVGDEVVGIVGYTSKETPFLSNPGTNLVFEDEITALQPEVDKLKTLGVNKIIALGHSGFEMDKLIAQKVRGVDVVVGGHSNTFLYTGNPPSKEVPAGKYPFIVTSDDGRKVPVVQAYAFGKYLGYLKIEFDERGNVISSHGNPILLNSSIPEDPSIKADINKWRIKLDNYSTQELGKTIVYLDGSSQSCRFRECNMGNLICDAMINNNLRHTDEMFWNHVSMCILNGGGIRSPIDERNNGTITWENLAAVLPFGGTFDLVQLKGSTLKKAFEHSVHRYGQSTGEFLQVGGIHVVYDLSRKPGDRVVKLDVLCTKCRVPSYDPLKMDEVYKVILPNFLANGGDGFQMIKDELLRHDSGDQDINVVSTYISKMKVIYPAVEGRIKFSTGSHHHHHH

human CD73 K180A = target: T2, human CD73 K180A (human, UniProt P21589 27-553, K180A); experiment: SPR ProteOn, His-tagged CD73 variant on HTG chip
T2 sequence: T1 sequence with K180A, G185N

human CD73 V144K + K180A = target: T3, human CD73 V144K + K180A (human, UniProt P21589 27-553); experiment: SPR ProteOn, His-tagged CD73 variant on HTG chip
T3 chain: T1 sequence with V144K, K180A, G185N, T350A

[1] = target: T4, CD73 construct with chicken N- and C-terminal domain sequence and knocked-in human V144 and N185; experiment: SPR ProteOn, His-tagged CD73 variant on HTG chip
T4 construct: K180 is conserved between chicken and human; also called chicken CD73 replaced with V144 and N185; knock-in
T4 chain: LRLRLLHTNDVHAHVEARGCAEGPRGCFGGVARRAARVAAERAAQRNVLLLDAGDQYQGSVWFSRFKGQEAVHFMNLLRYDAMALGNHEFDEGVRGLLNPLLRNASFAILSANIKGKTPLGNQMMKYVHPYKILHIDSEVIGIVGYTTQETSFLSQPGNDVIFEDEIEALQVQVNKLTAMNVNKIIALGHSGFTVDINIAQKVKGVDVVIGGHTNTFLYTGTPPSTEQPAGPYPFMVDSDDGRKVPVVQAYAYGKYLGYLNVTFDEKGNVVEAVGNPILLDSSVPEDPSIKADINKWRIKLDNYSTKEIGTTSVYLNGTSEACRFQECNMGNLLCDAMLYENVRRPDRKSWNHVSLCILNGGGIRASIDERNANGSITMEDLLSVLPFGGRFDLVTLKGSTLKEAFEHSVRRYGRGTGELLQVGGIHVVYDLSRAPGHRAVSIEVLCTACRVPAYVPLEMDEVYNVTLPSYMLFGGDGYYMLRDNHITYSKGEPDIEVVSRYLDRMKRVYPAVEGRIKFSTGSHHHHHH
Procedure: CD73 crude cell supernatant protein samples were diluted to 3 μg/ml in PBS, 0.005% Tween-20, pH 7.4 (BioRad) and immobilized to ˜400 RU on a HTG tris-NTA sensor chip (BioRad) pre-activated with 10 mM NiSO₄, 10 mM MES, pH 6.0 (BioRad). An equivalently diluted crude cell supernatant sample from non-transfected cells was included as a reference channel control. […] Antibody binding was measured at a flow rate of 100 μL/min with a 3 min association phase and 20 min dissociation phase. The sensor chip surface was regenerated between each run by an 800 s injection of 300 mM EDTA, pH 8.5 (BioRad) at a flow rate of 30 μL/min. Binding kinetics were analyzed using the ProteOn data analysis software. Double referencing was performed and, unless noted otherwise, a 1:1 Langmuir binding model was utilized to fit the data. […] Where noted, these variants were fit with a heterogenous antigen (2:1) model.

[2] = target: T4, CD73 construct with chicken N- and …; experiment: SPR ProteOn, MEDI9447 dilutions from 5 nM to 0.3 nM
Procedure: CD73 crude cell supernatant protein samples were diluted to 3 μg/ml in PBS, 0.005% Tween-20, pH 7.4 (BioRad) and immobilized to ˜400 RU on a HTG tris-NTA sensor chip (BioRad) pre-activated with 10 mM NiSO₄, 10 mM MES, pH 6.0 (BioRad). An equivalently diluted crude cell supernatant sample from non-transfected cells was included as a reference channel control. […] Antibody binding was measured at a flow rate of 100 μL/min with a 3 min association phase and 20 min dissociation phase. The sensor chip surface was regenerated between each run by an 800 s injection of 300 mM EDTA, pH 8.5 (BioRad) at a flow rate of 30 μL/min. Binding kinetics were analyzed using the ProteOn data analysis software. Double referencing was performed and, unless noted otherwise, a 1:1 Langmuir binding model was utilized to fit the data.

B1: MEDI9447 (antibody, V domains shown)
VH: EVQLLESGGGLVQPGGSLRLSCAASGFTFSSYAYSWVRQAPGKGLEWVSAISGSGGRTYYADSVKGRFTISRDNSKNTLYLQMNSLRAEDTAVYYCARLGYGRVDEWGRGTLVTVSS
VL: QSVLTQPPSASGTPGQRVTISCSGSLSNIGRNPVNWYQQLPGTAPKLLIYLDNLRLSGVPDRFSGSKSGTSASLAISGLQSEDEADYYCATWDDSHPGWTFGGGTKLTVL
notes: also called clone 10.3 antibody; 73combo3
koff (human CD73 N185G): 0.000245 s⁻¹
kon (human CD73 N185G): 9.11e+06 M⁻¹ s⁻¹
koff (human CD73 K180A): 0.000154 s⁻¹
kon (human CD73 K180A): 3.45e+06 M⁻¹ s⁻¹
koff (human CD73 V144K + K180A): 0.00425 s⁻¹
kon (human CD73 V144K + K180A): 1.58e+06 M⁻¹ s⁻¹
Kd [1]: 79 pM
fold of the KD for wild-type CD73 [2]: < 20 fold
